Experimental findings from patent US6989364B1, “Methods for treating cardiac hypertrophy by administering IFN-γ” (Genentech, Inc., priority 1998, dated 2006) are described below.

Marks after values point to notes of the source that are not given here.

The test system of series [1] is adult rat cardiac myocytes. The experiment in a line: Inhibition of phenylephrine-induced spreading response of adult myocytes. It is filed as cell-based. The following applies: IFN-γ 500 U/ml, PE 10^−5 M, 72 hr. How it is done: FIGS. 3A–3F Inhibition of phenylephedrine (PE)-induced spreading response by IFN-γ. Myocytes were pre-incubated with saline vehicle or IFN-γ (500 U/ml) on day of isolation. A second addition of vehicle or IFN-γ was performed 24h after isolation, along with the addition of either vehicle or PE (10^−5 M). After an additional 72 hr incubation, cells were fixed in glutaraldehyde, stained with eosin Y and viewed by fluorescence microscopy. A, B, C Cardiac myocytes after 4 days in culture: control, PE, and PE+IFN-γ, respectively. D, E, F Histographs showing maximum breadth of rod shaped cardiac myocytes versus percent frequency of breadth occurrence. The maximum breadth of rod-shaped cells was determined by fluorescence microscopy and imaging software. At least 200 rod shaped cells from a single experiment were examined per group. […] P<0.001 for all group comparisons. […]
Isolated adult rat myocytes were plated on laminin-coated plates at a density of 3×10^3 cells/ml. After 72 hours of appropriate stimulation, the cells were fixed with gluteraldehyde and stained with Eosin Y. Images of rod shaped cells were captured under fluorescent microscopy and maximum breadth was determined using imaging software (Simple 32, Compix Imaging, Mars, Pa.).

The subject of series [2] is rats with pressure overload. In words: Pressure overload (abdominal aortic banding) cardiac hypertrophy: body and organ weights. It is filed as in vivo, rat. How it is done:
For in vivo testing it is common to induce pressure-overload cardiac hypertrophy by constriction of the abdominal aorta of test animals. In a typical protocol rats (e.g. male Wistar or Sprague-Dawley) are treated under anesthesia, and the abdominal aorta of each rat is narrowed down just below the diaphragm. Beznak M., Can. J. Biochem. Physiol. 33, 985–94 (1955). The aorta is exposed through a surgical incision, and a blunted needle is placed next to the vessel. The aorta is constricted with a ligature of wool thread around the needle, which is immediately removed and which reduces the lumen of the aorta to the diameter of the needle. This approach is described, for example, in Rossi et al., Am. Heart J. 124, 700–709 (1992) and O'Rourke and Reibel, P.S.E.M.B. 200, 95–100 (1992). A detailed description of the protocol used by the present inventors is disclosed in the examples hereinbelow.
Animal model of pressure overload The induction of pressure overload by partial ligation of the abdominal aorta in rats was as described previously. Kimura et al., Am. J. Physiol. 1989:256 (Heart Circ. Physiol. 25):H1006–H1-11; Batra et al., J. Cardiovasc. Pharmacol. 17(suppl. 2), S151–S153 (1991). In brief, rats were anesthesized with ketamine/xylazine as described above. A 3 cm midline incision was made in the abdominal wall. The abdominal aorta between the diaphragm and the renal artery was exposed and looped with 5–0 silk suture. The suture was tightened around a gauge 23 needle, and then the needle was withdrawn. Sham animals received the surgery without tightening the suture.
(§1) Experimental protocol in rats with pressure overload The rats with aortic banding randomly received subcutaneous injection of IFN-γ at 0.08 mg/k twice a day for one day before surgery and for 14 days after surgery. Sham animals were not treated. Thirteen days after treatment, a catheter was implanted into the right carotid artery under anesthesia as indicated above. One day after implantation, arterial pressure and HR were measured in conscious rats. The heart and other organs including the liver, kidney, and spleen were removed, weighed, and fixed in 10% buffered formalin for pathological studies. The left ventricle was quickly dissected and frozen with liquid nitrogen in some animals and stored at −80° C. for assessment of gene expression.
Statistical analyisis Results are expressed as mean±SEM. One way analysis of variance (ANOVA) was performed to assess differences in parameters between groups. Significant differences were then subjected to post hoc analysis using Newman-Keuls method; P<0.05 was considered significant.

For series [3], the system named is rats with pressure overload. The experiment in a line: Arterial pressure and heart rate in rats with pressure overload. In kind it is in vivo, rat.
Excerpt: FIGS. 9A–9C Effects of IFN-γ on systolic arterial pressure, mean arterial pressure, and diastolic arterial pressure in rats with pressure overload. The number in parenthesis is the number of animals in each group. **P<0.01, compared to the sham group. Sham: sham-operated rats; Banded: aortic-banded rats; IFN: IFN-γ, SAP: systolic arterial pressure; MAP: mean arterial pressure; DAP: diastolic arterial pressure.
as §1

The mark [4] stands for this setting: pressure overload, IFN-γ 0.08 mg/kg s.c. twice a day, 1 day before and 14 days after surgery, mean ± SEM.

Turning to “IFN-γ: recombinant mouse IFN-γ (Genentech, Inc., South San Francisco, Calif., or Genzyme, Cambridge, Mass.)”, the “Inhibition of phenylephrine-induced myocyte spreading” value in series [1] is reported as “can also inhibit spreading induced by phenylephrine”. Further, the “Effect on cardiac hypertrophy induced by pressure overload (heart, atrial, ventricular, left ventricular weights and ratios to BW)” value in series [2] (aortic banding, IFN-γ vs vehicle, Table 2, FIGS. 7 and 8) is “significantly attenuated cardiac hypertrophy”. The “BWO, basal levels of body weight” value in series [2] (pressure overload rats, before treatment, mean ± SEM) is on record as 279.0 ± 1.3 g. For the same substance, in series [2] (setting [4]), the “AW, atrial weight” value was “.046 ± .003 g”; the “AW/BW, atrial weight to body weight” value was “.129 ± .007 g/kg”; the “BW, body weight post treatment” value amounted to 355.5 ± 5.2 g; the “KW, kidney weight” value is on record as 1.349 ± .071 g. Besides, in series [2] (setting [4]), the KWBW was 3.776 ± .071 g/kg; the “LW, liver weight” value was 13.96 ± .47 g; the “LW/BW, liver weight to body weight” value is listed as 38.94 ± .92 g/kg; the “SW, spleen weight” value is reported as 1.170 ± .053 g. Further, in series [2] (setting [4]), the “SW/BW, spleen weight to body weight” value is given as 3.261 ± .121 g/kg and the “ΔBW, BW-BWO” value was determined as 76.5 ± 4.7 g. Further, the “Incremental increase in arterial pressure (MAP, systolic, diastolic) in banded rats, IFN-γ vs vehicle” value in series [3] (FIG. 9) was “not different”. Besides, the “HR, heart rate” value in series [3] (pressure overload, conscious rats, IFN-γ 0.08 mg/kg s.c. twice a day, mean ± SEM) is listed as 418 ± 19* bpm.
